Source: patent US10947270B2, “Targeted prodrug cytosine deaminase fusion carrier and application thereof” (National Yang-Ming University, priority 2015, dated 2021)

B1: RGD4C-yCD: targeted prodrug enzyme fusion protein of RGD4C and yCD (SEQ ID NO: 3) (protein)
chain: MACDCRGDCFCVTGGMASKWDQKGMDIAYEEAALGYKEGGVPIGGCLINNKDGSVLGRGHNMRFQKGSATLHGEISTLENCGRLEGKVYKDTTLYTTLSPCDMCTGAIIMYGIPRCVVGENVNFKSKGEKYLQTRGHEVVVVDDERCKKIMKQFIDERPQDWFEDIGELEHHHHHH
modifications: RGD4C_yCD
B2: yCD/UPRT: recombinant fusion of yCD and yUPRT without target molecule (protein)
chain: MVVTGGMASKWDQKGMDIAYEEAALGYKEGGVPIGGCLINNKDGSVLGRGHNMRFQKGSATLHGEISTLENCGRLEGKVYKDTTLYTTLSPCDMCTGAIIMYGIPRCVVGENVNFKSKGEKYLQTRGHEVVVVDDERCKKIMKQFIDERPQDWFEDIGEASEPFKNVYLLPQTNQLLGLYTIIRNKNTTRPDFIFYSDRIIRLLVEEGLNHLPVQKQIVETDTNENFEGVSFMGKICGVSIVRAGESMEQGLRDCCRSVRIGKILIQRDEETALPKLFYEKLPEDISERYVFLLDPMLATGGSAIMATEVLIKRGVKPERIYFLNLICSKEGIEKYHAAFPEVRIVTGALDRGLDENKYLVPGLGDFGDRYYCVLEHHHHHH
B3: RGD4C-yCD/UPRT: targeted prodrug enzyme fusion protein (SEQ ID NO: 4) (protein)
chain: MACDCRGDCFCVTGGMASKWDQKGMDIAYEEAALGYKEGGVPIGGCLINNKDGSVLGRGHNMRFQKGSATLHGEISTLENCGRLEGKVYKDTTLYTTLSPCDMCTGAIIMYGIPRCVVGENVNFKSKGEKYLQTRGHEVVVVDDERCKKIMKQFIDERPQDWFEDIGEASEPFKNVYLLPQTNQLLGLYTIIRNKNTTRPDFIFYSDRIIRLLVEEGLNHLPVQKQIVETDTNENFEGVSFMGKICGVSIVRAGESMEQGLRDCCRSVRIGKILIQRDEETALPKLFYEKLPEDISERYVFLLDPMLATGGSAIMATEVLIKRGVKPERIYFLNLICSKEGIEKYHAAFPEVRIVTGALDRGLDENKYLVPGLGDFGDRYYCVLEHHHHHH
modifications: RGD4C_yCD_yUPRT

Assays:
HUVEC and U87MG cells = experiment: Fluorescence microscopy of binding and distribution of yCD series fusion proteins; format: cell-based, human; details: 500 nM protein, 2 hours
Procedure: (FIG. 8A) or 37° C. […] (FIG. 8C) or 37° C. (FIG. 8D) for 2 hours, and then the fluorescent staining is performed for the cells, and the confocal fluorescence microscope is used to observe the distribution of protein in cells. (Green signal: β3 integrin; red signal: anti-His6-tag (also represents the signal of the fusion protein); blue signal: Hoechst 33342 cell nuclear stain) (Calibration scale: 20 μm).
HUVEC and U87MG cells are co-cultured with culture medium containing 500 nM RGD4C-yCD and RGD4C-yCD/UPRT protein at 4° C. and 37° C. for 2 hours, then the cells are stained with fluorescence, and the distribution in the cell is observed by conjugated fluorescence microscopy.

[1] = Enzyme activity and kinetic analysis of yCD series recombinant proteins (5-FC converted into 5-FU); format: biochemical; details: 50 nM protein
Procedure: FIGS. 2A-2B show the enzyme activities of RGD4C-yCD, yCD, RGD4C-yCD/UPRT and yCD/UPRT proteins to convert 5-FC to 5-FU. 50 nM of RGD4C-yCD, yCD, RGD4C-yCD/UPRT or yCD/UPRT protein reacted with increasing concentrations of 5-FC in phosphate buffered saline solutions. […] The measured data was used to plot the enzyme kinetic curve that takes the substrate concentration [S] as the x-axis and takes the initial reaction rate V0 as the y-axis,
The enzyme activity of 5-FC converted into 5-FU by RGD4C-yCD, yCD, RGD4C-yCD/UPRT and yCD/UPRT is performed. The recombinant protein concentration (50 nM) added with 5-FC at different concentrations. The 5-FC consumption and the generated amount of 5-FU is calculated. The measured data is taken as the x-axis by the substrate concentration [S]; the initial reaction rate V0 is the kinetic curve by making a diagramthe with y-axis (see FIG. 2A and FIG. 2B); the non-linear regression is made by the prism software according to the Michaelis-Menten equation; calculate the enzyme kinetic parameter Km and Vmax. […] It is speculated that the yCD function in each fusion protein is similar, but yUPRT may affect the effects of yCD and 5-FC.

[2] = Enzyme kinetic analysis of yCD series proteins after DTPA modification, marking and purification; format: biochemical
Text: The enzyme activity of yCD is not affected by DTPA modification.
FIGS. 24A-24B show the kinetic curve of yCD series protein modified, labeled and purified by DTPA. The enzyme activity of the two proteins is not affected by the labeling conditions. After adding EDTA with a 10-fold molar excess of protein, and it is competitively purified, In-DTPA-yCD compared with the original enzyme activity.
The curve and enzyme kinetic parameters (see FIG. 18 and Table 13) are fitted by the […] protein enzyme kinetics through the Michaelis-Menten formula in the Graph prism program.
Before the protein is labeled by radioisotope, its enzyme function must be determined, and based on the original enzyme function, it should be examined whether it will be affected during the radioactive marking process. The curve and enzyme kinetic parameters of protein are fitted by the Michaelis-Menten formula in the Graph prism program. […] Whether the yCD and RGD4C-yCD protein detected by the same method will be affected under the conditions of DTPA modification, marking and purification. […] After the completion of the radioactive metal mark, it is necessary to add EDTA of 10-fold protein Moire number and react at room temperature for 1 hour to compete for the radioactive metal isotope indium which is not chelated on DTPA. The EDTA in this step also has the chance to chelate the metal zinc ion of the enzyme catalytic center, the enzyme activity is impaired, so it is necessary to analyze the enzyme activity of In-DTPA-yCD and In-RGD4C-yCD protein after competition with EDTA. After the EDTA competitive reaction is completed, the enzyme kinetics analysis can be carried out by reducing the EDTA molecule weight through membrane centrifugation method and by replacing the solution with pH 7.0. […] The curve and receptor binding ability parameters of the protein and integrin αvβ3 are fitted under the conditions of DTPA modification, marking and purification by the One site-Specific binding formula in the Graph prism program (see FIG. 25 and Table 18). […] Although the two proteins after marking are greatly affected by the enzyme activity, they still have good binding ability to the integrin αvβ3 receptor. In consideration of the indispensability of EDTA for radiochemical purity, it retains a considerable amount of enzyme activity. In addition, the effect of integrin αvβ3 receptor binding ability is minimal, in combination of cell uptake, biodistribution and angiography experiment, focusing on the evaluation of target results, and the subsequent biological experiment is still carried out by the marking and purification conditions.

integrin αvβ3 receptor = integrin αvβ3 receptor (Homo sapiens, UniProt P05106+P06756); experiment: ELISA binding assay of yCD series recombinant protein to integrin αvβ3 receptor; details: for decrease of binding to integrin αvβ3 by RGDfv peptide: RGDfv peptide at same concentration
Chain of integrin αvβ3 receptor (P06756 31-889 limits assumed): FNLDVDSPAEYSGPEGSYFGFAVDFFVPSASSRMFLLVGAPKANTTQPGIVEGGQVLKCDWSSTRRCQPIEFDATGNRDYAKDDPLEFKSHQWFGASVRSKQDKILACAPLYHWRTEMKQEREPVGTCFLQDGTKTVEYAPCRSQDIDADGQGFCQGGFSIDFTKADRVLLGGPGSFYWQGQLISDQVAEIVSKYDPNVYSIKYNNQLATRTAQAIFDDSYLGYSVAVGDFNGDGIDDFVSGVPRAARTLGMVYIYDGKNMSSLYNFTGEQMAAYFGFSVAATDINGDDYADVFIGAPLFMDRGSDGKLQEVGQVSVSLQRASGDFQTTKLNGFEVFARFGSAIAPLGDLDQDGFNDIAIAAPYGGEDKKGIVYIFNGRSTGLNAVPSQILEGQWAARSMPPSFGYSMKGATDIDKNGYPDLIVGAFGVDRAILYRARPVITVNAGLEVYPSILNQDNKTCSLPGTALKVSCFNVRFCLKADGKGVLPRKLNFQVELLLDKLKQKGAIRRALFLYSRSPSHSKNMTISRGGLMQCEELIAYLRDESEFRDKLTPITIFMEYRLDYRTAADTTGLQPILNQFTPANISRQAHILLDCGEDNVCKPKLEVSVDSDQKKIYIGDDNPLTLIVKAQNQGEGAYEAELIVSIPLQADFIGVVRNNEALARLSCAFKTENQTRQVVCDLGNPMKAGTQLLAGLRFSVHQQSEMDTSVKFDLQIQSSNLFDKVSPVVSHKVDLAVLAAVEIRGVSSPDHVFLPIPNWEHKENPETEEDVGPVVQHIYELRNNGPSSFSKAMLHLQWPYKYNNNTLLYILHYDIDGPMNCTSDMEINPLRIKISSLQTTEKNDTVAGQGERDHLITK
Chain of integrin αvβ3 receptor (P06756 891-1048 partner limits assumed): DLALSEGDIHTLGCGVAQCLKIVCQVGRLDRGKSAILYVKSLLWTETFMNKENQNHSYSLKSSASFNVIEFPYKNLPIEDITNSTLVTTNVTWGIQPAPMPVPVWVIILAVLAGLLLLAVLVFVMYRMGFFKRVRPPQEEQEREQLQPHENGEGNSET
Chain of integrin αvβ3 receptor (P05106 27-788): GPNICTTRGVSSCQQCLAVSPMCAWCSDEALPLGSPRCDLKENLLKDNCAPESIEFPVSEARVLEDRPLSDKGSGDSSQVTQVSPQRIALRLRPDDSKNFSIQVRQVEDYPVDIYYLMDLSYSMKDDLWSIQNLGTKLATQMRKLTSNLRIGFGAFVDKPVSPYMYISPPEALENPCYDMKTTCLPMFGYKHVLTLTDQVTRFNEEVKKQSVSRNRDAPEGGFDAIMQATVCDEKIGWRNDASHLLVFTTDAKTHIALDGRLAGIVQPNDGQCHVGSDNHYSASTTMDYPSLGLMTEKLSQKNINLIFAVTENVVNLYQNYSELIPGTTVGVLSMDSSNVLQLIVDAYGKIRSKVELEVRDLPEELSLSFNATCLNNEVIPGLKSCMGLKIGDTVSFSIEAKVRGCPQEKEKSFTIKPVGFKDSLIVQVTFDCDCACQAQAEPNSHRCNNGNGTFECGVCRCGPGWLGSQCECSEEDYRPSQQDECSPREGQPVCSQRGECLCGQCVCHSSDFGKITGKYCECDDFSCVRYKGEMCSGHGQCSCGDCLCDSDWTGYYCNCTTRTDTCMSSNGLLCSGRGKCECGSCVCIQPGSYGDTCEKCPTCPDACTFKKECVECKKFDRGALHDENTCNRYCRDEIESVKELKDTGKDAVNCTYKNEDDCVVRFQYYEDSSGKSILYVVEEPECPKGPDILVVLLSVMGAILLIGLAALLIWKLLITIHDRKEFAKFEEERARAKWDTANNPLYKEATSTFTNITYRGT
Procedure: FIGS. 3A-3B show the binding affinity and specificity of RGD4C-yCD, yCD, RGD4C-yCD/UPRT and yCD/UPRT proteins to integrin αvβ3. The binding affinities of RGD4C-yCD, yCD, RGD4C-yCD/UPRT and yCD/UPRT proteins to integrin αvβ3 were determined by ELISA assay using horseradish peroxidase (HRP)-tagged anti-His6 antibody (FIG. 3A). The dissociation constant Kd is obtained by prism software with curve fitting method. […] (*compared with untreated RGDfv group, P<0.05)
The specific binding ability of RGD4C-yCD, yCD, RGD4C-yCD/UPRT and yCD/UPRT recombinant protein to integrin αvβ3 receptor is analyzed by ELISA binding assay, plotted with prism software and made with curve fitting to find the dissociation constant Kd value.

HUVEC cells = experiment: Specific binding assay of yCD series recombinant protein and cell (cell ELISA); format: cell-based, human; details: HUVEC versus MCF-7
Procedure: (§1) FIG. 5A, FIG. 5B, and FIG. 5C are respectively represented HUVEC cells, U87MG cells, MCF-7 cells seeded in 96-well plates for 24 hours, and then RGD4C-yCD, yCD, RGD4C-yCD/UPRT and yCD/UPRT with different concentrations are added for cells binding assay. After reacted with anti-His-HRP antibody and TMB substrate, ELISA reader (OD450 nm) is used to detect the amount of recombinant protein bound to the cells, and the binding curve is drawn. The nonlinear curve of the prism software is used to make a diagram and calculate the dissociation constant (Kd).
(§2) The anti-His6-Tag-HRP antibody and TMB show the color reagent to detect the amount of recombinant protein bound to the cell, then the dissociation constant Kd value of the recombinant protein and the integrin αvβ3 receptor is calculated and a binding curve is drawn. […] The cell binding ability of RGD4C-yCD for HUVEC and U87MG are about 7.7 folds and 6.8 folds higher than MCF-7 respectively. The cell binding ability of RGD4C-yCD/UPRT for HUVEC and U87MG are about 6.9 folds and 5.8 folds higher than MCF-7 respectively. […] It is shown that RGD4C-yCD and RGD4C-yCD/UPRT are specially bound with integrin αvβ3 through RGD4C sequence.

[3] = tested on: HUVEC, U87MG and MCF-7 cells; experiment: Specific binding assay of yCD series recombinant protein and cell, statement for the three cells; format: cell-based, human
Procedure: as §1, §2

| Molecule | binding and distribution in cells (HUVEC and U87MG cells; 4° C.) | binding and distribution in cells (HUVEC and U87MG cells; 37° C.) | Km ([1]; calculated by 5-FC consumption) | Vmax ([1]; calculated by 5-FC consumption) | Km ([1]; calculated by 5-FU formation) | Vmax ([1]; calculated by 5-FU formation) | Km [2] | Vmax [2] | decrease of binding to integrin αvβ3 by RGDfv peptide (integrin αvβ3 receptor) | cell binding ability higher than MCF-7 (HUVEC cells) | binding to the three cells [3] | binding to integrin αvβ3 (integrin αvβ3 receptor; ELISA) |
| --- | --- | --- | --- | --- | --- | --- | --- | --- | --- | --- | --- | --- |
| B1 | only bound to HUVEC and U87MG cell surface | enter the inside of HUVEC and U87MG cells through endocytosis | 600 ± 100 µM | 179.5 ± 4.7 µM/min | 900 ± 100 µM | 167.7 ± 4.6 µM/min | 1000 ± 73.2 µM | 288.7 ± 8.883 µM/min | 50% | about 7.7 folds |  |  |
| B2 | can not be effectively bound |  | 1200 ± 100 µM | 137.2 ± 3.6 µM/min | 1200 ± 100 µM | 112.7 ± 8.1 µM/min |  |  |  |  | weak binding | cannot be bound |
| B3 | only bound to HUVEC and U87MG cell surface | enter the inside of HUVEC and U87MG cells through endocytosis | 1200 ± 200 µM | 147.0 ± 5.9 µM/min | 1200 ± 200 µM | 109.2 ± 10.1 µM/min |  |  | 50% | about 6.9 folds |  |  |
